B1: Actin nucleation-promoting factor WAS (Homo sapiens), P42768 (parent)
chain: MSGGPMGGRPGGRGAPAVQQNIPSTLLQDHENQRLFEMLGRKCLTLATAVVQLYLALPPGAEHWTKEHCGAVCFVKDNPQKSYFIRLYGLQAGRLLWEQELYSQLVYSTPTPFFHTFAGDDCQAGLNFADEDEAQAFRALVQEKIQKRNQRQSGDRRQLPPPPTPANEERRGGLPPLPLHPGGDQGGPPVGPLSLGLATVDIQNPDITSSRYRGLPAPGPSPADKKRSGKKKISKADIGAPSGFKHVSHVGWDPQNGFDVNNLDPDLRSLFSRAGISEAQLTDAETSKLIYDFIEDQGGLEAVRQEMRRQEPLPPPPPPSRGGNQLPRPPIVGGNKGRSGPLPPVPLGIAPPPPTPRGPPPPGRGGPPPPPPPATGRSGPLPPPPPGAGGPPMPPPPPPPPPPPSSGNGPAPPPLPPALVPAGGLAPGGGRGALLDQIRQGIQLNKTPGAPESSALQPPPQSSEGLVGALMHVMQKRSRAIHSSDEGEDQAGDEDEDDEWDD

Assays:
[1] = variants of: B1; conditions: with wipf1_human WIPF1, O43516
Chain of wipf1_human WIPF1, O43516 (O43516 whole entry): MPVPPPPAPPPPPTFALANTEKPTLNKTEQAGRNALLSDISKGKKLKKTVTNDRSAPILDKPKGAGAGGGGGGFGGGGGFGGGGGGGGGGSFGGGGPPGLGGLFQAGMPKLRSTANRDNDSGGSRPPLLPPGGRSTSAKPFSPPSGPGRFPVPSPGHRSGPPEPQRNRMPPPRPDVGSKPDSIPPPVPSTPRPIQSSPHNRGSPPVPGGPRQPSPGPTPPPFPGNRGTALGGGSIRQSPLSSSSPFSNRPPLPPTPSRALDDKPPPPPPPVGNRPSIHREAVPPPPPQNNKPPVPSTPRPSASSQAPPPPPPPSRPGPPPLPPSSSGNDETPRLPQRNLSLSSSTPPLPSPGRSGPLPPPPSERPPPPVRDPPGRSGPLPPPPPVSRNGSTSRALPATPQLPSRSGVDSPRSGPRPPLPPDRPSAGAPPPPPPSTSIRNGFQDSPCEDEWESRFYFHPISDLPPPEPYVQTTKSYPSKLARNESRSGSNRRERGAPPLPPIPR

[2] = variants of: B1; conditions: with wipf1_human WIPF1, O43516; remark: listed apart in the source

MSGGPMGGRPGGRGAPAVQQNIPSTLLQDHENQRLFEMLGRKCLTLATAVVQLYLALPPGAEHWTKEHCGAVCFVKDNPQKSYFIRLYGLQAGRLLWEQELYSQLVYSTPTPFFHTFAGDDCQAGLNFADEDETQAFRALVQEKIQKRNQRQSGDRRQLPPPPTPANEERRGGLPPLPLHPGGDQGGPPVGPLSLGLATVDIQNPDITSSRYRGLPAPGPSPADKKRSGKKKISKADIGAPSGFKHVSHVGWDPQNGFDVNNLDPDLRSLFSRAGISEAQLTDAETSKLIYDFIEDQGGLEAVRQEMRRQEPLPPPPPPSRGGNQLPRPPIVGGNKGRSGPLPPVPLGIAPPPPTPRGPPPPGRGGPPPPPPPATGRSGPLPPPPPGAGGPPMPPPPPPPPPPPSSGNGPAPPPLPPALVPAGGLAPGGGRGALLDQIRQGIQLNKTPGAPESSALQPPPQSSEGLVGALMHVMQKRSRAIHSSDEGEDQAGDEDEDDEWDD [A134T]
effect of a mutation on the interaction [1]: disrupting interaction strength

MSGGPMGGRPGGRGAPAVQQNIPSTLLQDHENQRLFEMLGRKCLTLATAVVQLYLALPPGAEHWTKEHCGAVCFVKDNPQKSYFIRLYGLQAGRLLWEQELYSQLVYSTPTPFFHTFAGDDCQAGLNFADEDEAQAFPALVQEKIQKRNQRQSGDRRQLPPPPTPANEERRGGLPPLPLHPGGDQGGPPVGPLSLGLATVDIQNPDITSSRYRGLPAPGPSPADKKRSGKKKISKADIGAPSGFKHVSHVGWDPQNGFDVNNLDPDLRSLFSRAGISEAQLTDAETSKLIYDFIEDQGGLEAVRQEMRRQEPLPPPPPPSRGGNQLPRPPIVGGNKGRSGPLPPVPLGIAPPPPTPRGPPPPGRGGPPPPPPPATGRSGPLPPPPPGAGGPPMPPPPPPPPPPPSSGNGPAPPPLPPALVPAGGLAPGGGRGALLDQIRQGIQLNKTPGAPESSALQPPPQSSEGLVGALMHVMQKRSRAIHSSDEGEDQAGDEDEDDEWDD [R138P]
effect of a mutation on the interaction [1]: disrupting interaction strength | effect of a mutation on the interaction [2]: decreasing interaction strength

MSGGPMGGRPGGRGAPAVQQNIPSTLLQDHENQRLFEMLGRKCLTLATAVVQLYLALPPGAEHWTKEHCGAVCFVKDNPQKSYFIRLYGLQAGRLLWEQELYSQLVYSTPTPFFHTFAGDDCQAGLNFADEDEAQAFAALVQEKIQKRNQRQSGDRRQLPPPPTPANEERRGGLPPLPLHPGGDQGGPPVGPLSLGLATVDIQNPDITSSRYRGLPAPGPSPADKKRSGKKKISKADIGAPSGFKHVSHVGWDPQNGFDVNNLDPDLRSLFSRAGISEAQLTDAETSKLIYDFIEDQGGLEAVRQEMRRQEPLPPPPPPSRGGNQLPRPPIVGGNKGRSGPLPPVPLGIAPPPPTPRGPPPPGRGGPPPPPPPATGRSGPLPPPPPGAGGPPMPPPPPPPPPPPSSGNGPAPPPLPPALVPAGGLAPGGGRGALLDQIRQGIQLNKTPGAPESSALQPPPQSSEGLVGALMHVMQKRSRAIHSSDEGEDQAGDEDEDDEWDD [R138A]
effect of a mutation on the interaction [1]: with no effect | effect of a mutation on the interaction [2]: increasing interaction strength

MSGGPMGGRPGGRGAPAVQQNIPSTLLQDHENQRLFEMLGRKCLTLATAVVQLYLALPPGAEHWTKEHCGAVCFVKDNPQKSYFIRLYGLQAGRLLWEQELYSQLVYSTPTPFFHTFAGDDCQAGLNFADEDEAQAFEALVQEKIQKRNQRQSGDRRQLPPPPTPANEERRGGLPPLPLHPGGDQGGPPVGPLSLGLATVDIQNPDITSSRYRGLPAPGPSPADKKRSGKKKISKADIGAPSGFKHVSHVGWDPQNGFDVNNLDPDLRSLFSRAGISEAQLTDAETSKLIYDFIEDQGGLEAVRQEMRRQEPLPPPPPPSRGGNQLPRPPIVGGNKGRSGPLPPVPLGIAPPPPTPRGPPPPGRGGPPPPPPPATGRSGPLPPPPPGAGGPPMPPPPPPPPPPPSSGNGPAPPPLPPALVPAGGLAPGGGRGALLDQIRQGIQLNKTPGAPESSALQPPPQSSEGLVGALMHVMQKRSRAIHSSDEGEDQAGDEDEDDEWDD [R138E]
effect of a mutation on the interaction [1]: with no effect | effect of a mutation on the interaction [2]: increasing interaction strength

Reference: IntAct's records for PubMed 12591280
